Reference: paper PMC9079162

Molecular target: human complement regulatory factor H (hfH) (human) (UniProt P08603)
Assay: SPR

Sequence of human complement regulatory factor H (hfH) (human) (P08603 19-1231): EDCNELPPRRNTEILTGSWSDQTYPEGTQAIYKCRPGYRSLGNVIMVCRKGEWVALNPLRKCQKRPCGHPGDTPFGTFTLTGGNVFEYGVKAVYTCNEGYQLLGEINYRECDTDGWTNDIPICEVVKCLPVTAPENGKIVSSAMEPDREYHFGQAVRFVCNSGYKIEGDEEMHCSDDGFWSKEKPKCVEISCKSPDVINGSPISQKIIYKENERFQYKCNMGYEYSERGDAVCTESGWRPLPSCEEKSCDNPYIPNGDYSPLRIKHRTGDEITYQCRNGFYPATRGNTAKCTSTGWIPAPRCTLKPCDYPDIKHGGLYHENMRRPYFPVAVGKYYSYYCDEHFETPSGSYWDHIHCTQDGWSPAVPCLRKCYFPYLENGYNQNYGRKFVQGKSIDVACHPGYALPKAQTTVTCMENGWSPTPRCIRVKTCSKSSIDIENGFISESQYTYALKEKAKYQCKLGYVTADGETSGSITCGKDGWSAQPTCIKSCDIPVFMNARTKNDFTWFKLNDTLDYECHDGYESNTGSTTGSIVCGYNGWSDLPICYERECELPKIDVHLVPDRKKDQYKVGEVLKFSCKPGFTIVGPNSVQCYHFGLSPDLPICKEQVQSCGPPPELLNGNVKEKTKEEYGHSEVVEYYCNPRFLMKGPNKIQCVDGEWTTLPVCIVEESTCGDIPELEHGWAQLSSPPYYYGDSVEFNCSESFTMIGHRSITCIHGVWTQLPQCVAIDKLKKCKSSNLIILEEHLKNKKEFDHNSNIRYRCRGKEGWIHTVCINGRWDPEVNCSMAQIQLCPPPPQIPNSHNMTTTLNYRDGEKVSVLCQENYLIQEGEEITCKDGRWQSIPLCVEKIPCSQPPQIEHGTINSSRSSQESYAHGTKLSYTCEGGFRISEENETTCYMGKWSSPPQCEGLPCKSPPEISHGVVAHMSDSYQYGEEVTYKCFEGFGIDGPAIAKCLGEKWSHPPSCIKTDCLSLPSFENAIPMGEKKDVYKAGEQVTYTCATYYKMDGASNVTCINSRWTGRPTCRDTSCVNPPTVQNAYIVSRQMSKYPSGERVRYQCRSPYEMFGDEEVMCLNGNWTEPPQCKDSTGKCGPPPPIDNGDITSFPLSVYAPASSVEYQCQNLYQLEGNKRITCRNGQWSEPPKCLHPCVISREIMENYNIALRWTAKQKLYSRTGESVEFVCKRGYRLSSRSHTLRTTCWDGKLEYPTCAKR

factor H binding protein (fHbp) variant1-2,3.x from MenB clinical isolate NL096 (from UniProt E6MV22 20-274) (natural protein)
Kd: 30.4 nM
